Assay [1] has as its target T1, GFP-tagged Plasmepsin V (PmV-GFP), P. falciparum clone DC6 (Plasmodium falciparum).
The target of assay [2] is T1, GFP-tagged Plasmepsin V (PmV-GFP), P. …. Put plainly: 3 uM HRPII-PExEl substrate.
Assay [3] shares this target. This is another data set of the same source.
Assay [4] shares this target. Put plainly: 3 uM HRPII-PExEl substrate. This is another data set of the same source.
Assay [5] shares this target. Put plainly: 3 uM HRPII-PExEl substrate. This is another data set of the same source.

We go through four molecules from publication PMC4643876 (2015).

Read-outs that look alike come from different tables or passages of the source. Ends that are not written are not given here. * marks the point of attachment. Biotin = O=C1N[C@H]2[C@H](CS[C@H]2CCCCC(=O)*)N1; Octanoyl = CCCCCCCC(=O)*; GABA = NCCCC(=O)O

T1 sequence (Q8I6Z5 whole entry): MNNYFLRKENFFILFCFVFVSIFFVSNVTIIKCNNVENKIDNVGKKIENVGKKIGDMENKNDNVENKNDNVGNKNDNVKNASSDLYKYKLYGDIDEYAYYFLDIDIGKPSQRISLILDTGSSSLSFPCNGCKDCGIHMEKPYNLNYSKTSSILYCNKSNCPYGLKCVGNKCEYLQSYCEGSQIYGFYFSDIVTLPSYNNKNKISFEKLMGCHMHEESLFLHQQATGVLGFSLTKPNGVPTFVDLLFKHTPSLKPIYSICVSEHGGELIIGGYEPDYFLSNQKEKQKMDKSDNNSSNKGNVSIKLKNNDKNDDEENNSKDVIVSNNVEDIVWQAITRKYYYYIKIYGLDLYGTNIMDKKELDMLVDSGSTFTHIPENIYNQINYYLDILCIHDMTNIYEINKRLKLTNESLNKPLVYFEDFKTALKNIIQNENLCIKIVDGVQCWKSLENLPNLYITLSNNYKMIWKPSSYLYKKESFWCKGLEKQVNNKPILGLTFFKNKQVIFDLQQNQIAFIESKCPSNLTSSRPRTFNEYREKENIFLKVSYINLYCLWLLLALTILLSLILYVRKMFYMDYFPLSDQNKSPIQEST

B1: Compound 7a (peptide)
chain: RLLYEA
modifications: not fully specified; also: HEA isostere replaces the Leu3-Tyr4 peptide bond
In general, Ki refers to a measure of affinity in units of concentration, obtained from inhibition or displacement. Low values mean a stronger hold on the target, high ones a looser hold on the target. One may read the IC50 as the concentration that gives 50% inhibition. A lower IC50 goes with higher potency. As to B1, the Ki in assay [1] came to 0.74 nM. For the same molecule, the IC50 in assay [2] was 1.38 nM.

B2: Compound 37a (octanoyl group at the N-terminus of Compound 7a) (peptide)
peptide: Octanoyl-RLLYEA
modifications: also: hydroxyethylamino (HEA) isostere in place of peptide bond Leu3-Tyr4, carbinol S
In the case of B2, the inhibition constant Ki in assay [3] was found to be 0.01 nM.

B3: Compound 1 (LG20), RL[L~A]EA (peptide)
peptide: RLLAEA
modifications: also: hydroxyethylamino (HEA) isostere in place of peptide bond Leu3-Ala4
B3: the IC50 in assay [4] stood at 0.37 nM.

B4: Compound 36, a biotinylated version of Compound 1 (peptide)
peptide: {Biotin-GABA-GABA}-RLLAEA
modifications: also: hydroxyethylamino (HEA) isostere in place of peptide bond Leu3-Ala4
With B4, the Ki in assay [3] came out at 22.5 nM. The midpoint of inhibition in assay [5], the IC50, lay at 41.9 nM.
